# Reference: the supplement of paper PMC9112550, “Optimization of the antimicrobial peptide Bac7 by deep mutational scanning” (BMC Biology, 2022)
# Test system: Escherichia coli TOP10
# Test: shrunken log2 fold change of peptide-encoding DNA abundance (4.5 h post-induction vs induction); higher = less antimicrobial activity (less host growth inhibition)
# Conditions: time post-induction: 4.5 h; library: site-saturation at positions 5, 18, 19, 20
# 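Further: peptides expressed intracellularly from a pBAD plasmid library in pooled LB shake-flask culture, induced with 0.3% L-arabinose, DNA abundance read by NGS, three biological replicates, DESeq2 with apeglm shrinkage.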
row,Sequence,shrunken log2 fold change
1,RRIRNRPPRLPRPRPRPGCQPRP,-0.108
2,RRIRNRPPRLPRPRPRPGEEPRP,-0.0107
3,RRIRNRPPRLPRPRPRPGEPPRP,0.033
4,RRIRNRPPRLPRPRPRPGFCPRP,0.164
5,RRIRNRPPRLPRPRPRPGGFPRP,0.144
6,RRIRNRPPRLPRPRPRPGGPPRP,0.37
7,RRIRNRPPRLPRPRPRPGIKPRP,-0.192
8,RRIRNRPPRLPRPRPRPGKLPRP,-0.0284
9,RRIRNRPPRLPRPRPRPGKRPRP,0.00355
10,RRIRNRPPRLPRPRPRPGKVPRP,-0.123
11,RRIRNRPPRLPRPRPRPGLDPRP,0.00266
12,RRIRNRPPRLPRPRPRPGLNPRP,0.035
13,RRIRNRPPRLPRPRPRPGMEPRP,-0.0302
14,RRIRNRPPRLPRPRPRPGNKPRP,-0.408
15,RRIRNRPPRLPRPRPRPGQGPRP,-0.0357
16,RRIRNRPPRLPRPRPRPGQHPRP,0.128
17,RRIRNRPPRLPRPRPRPGQIPRP,0.0192
18,RRIRNRPPRLPRPRPRPGQPPRP,0.0308
19,RRIRNRPPRLPRPRPRPGRGPRP,0.918
20,RRIRNRPPRLPRPRPRPGSCPRP,-0.247
21,RRIRNRPPRLPRPRPRPGTGPRP,-0.127
22,RRIRNRPPRLPRPRPRPGTKPRP,0.0372
23,RRIRNRPPRLPRPRPRPGYCPRP,-0.369
24,RRIRNRPPRLPRPRPRPGYWPRP,0.168
25,RRIRNRPPRLPRPRPRPHCHPRP,-0.398

row,Sequence,shrunken log2 fold change
1,RRIRNRPPRLPRPRPRPHDGPRP,-0.378
2,RRIRNRPPRLPRPRPRPHDWPRP,0.263
3,RRIRNRPPRLPRPRPRPHETPRP,-0.127
4,RRIRNRPPRLPRPRPRPHGPPRP,0.115
5,RRIRNRPPRLPRPRPRPHGTPRP,-0.105
6,RRIRNRPPRLPRPRPRPHHNPRP,-0.869
7,RRIRNRPPRLPRPRPRPHIVPRP,-0.249
8,RRIRNRPPRLPRPRPRPHKGPRP,-0.014
9,RRIRNRPPRLPRPRPRPHLAPRP,0.131
10,RRIRNRPPRLPRPRPRPHMVPRP,-0.13
11,RRIRNRPPRLPRPRPRPHNQPRP,-0.7
12,RRIRNRPPRLPRPRPRPHPKPRP,0.187
13,RRIRNRPPRLPRPRPRPHRLPRP,-0.00303
14,RRIRNRPPRLPRPRPRPHSLPRP,-0.117
15,RRIRNRPPRLPRPRPRPHWVPRP,-0.0512
16,RRIRNRPPRLPRPRPRPHYFPRP,-0.0132
17,RRIRNRPPRLPRPRPRPHYRPRP,-0.0488
18,RRIRNRPPRLPRPRPRPHYVPRP,-0.121
19,RRIRNRPPRLPRPRPRPIAWPRP,0.228
20,RRIRNRPPRLPRPRPRPICLPRP,0.00214
21,RRIRNRPPRLPRPRPRPIDCPRP,-0.248
22,RRIRNRPPRLPRPRPRPIDEPRP,-0.0586
23,RRIRNRPPRLPRPRPRPIEHPRP,-0.307
24,RRIRNRPPRLPRPRPRPIEKPRP,-0.0498
25,RRIRNRPPRLPRPRPRPIEWPRP,-0.00176

row,Sequence,shrunken log2 fold change
1,RRIRNRPPRLPRPRPRPIGKPRP,-0.0902
2,RRIRNRPPRLPRPRPRPIGLPRP,-0.123
3,RRIRNRPPRLPRPRPRPIHHPRP,-0.383
4,RRIRNRPPRLPRPRPRPIHTPRP,-0.0125
5,RRIRNRPPRLPRPRPRPIHYPRP,-0.285
6,RRIRNRPPRLPRPRPRPIIMPRP,-0.729
7,RRIRNRPPRLPRPRPRPIIYPRP,-1.06
8,RRIRNRPPRLPRPRPRPILEPRP,0.109
9,RRIRNRPPRLPRPRPRPILNPRP,-0.353
10,RRIRNRPPRLPRPRPRPIMAPRP,-0.187
11,RRIRNRPPRLPRPRPRPIMCPRP,-0.148
12,RRIRNRPPRLPRPRPRPIMPPRP,-0.225
13,RRIRNRPPRLPRPRPRPINHPRP,-0.705
14,RRIRNRPPRLPRPRPRPINWPRP,-0.133
15,RRIRNRPPRLPRPRPRPIPIPRP,-0.0823
16,RRIRNRPPRLPRPRPRPIRNPRP,-0.422
17,RRIRNRPPRLPRPRPRPIRPPRP,-0.00213
18,RRIRNRPPRLPRPRPRPIRQPRP,0.0261
19,RRIRNRPPRLPRPRPRPIRVPRP,-0.0394
20,RRIRNRPPRLPRPRPRPISCPRP,-0.205
21,RRIRNRPPRLPRPRPRPISPPRP,-0.13
22,RRIRNRPPRLPRPRPRPITAPRP,-0.132
23,RRIRNRPPRLPRPRPRPITSPRP,-0.282
24,RRIRNRPPRLPRPRPRPITWPRP,-0.0587
25,RRIRNRPPRLPRPRPRPIVKPRP,-0.339

row,Sequence,shrunken log2 fold change
1,RRIRNRPPRLPRPRPRPIVLPRP,-0.211
2,RRIRNRPPRLPRPRPRPIVPPRP,-0.382
3,RRIRNRPPRLPRPRPRPIVQPRP,-0.236
4,RRIRNRPPRLPRPRPRPIWFPRP,0.205
5,RRIRNRPPRLPRPRPRPIYVPRP,-0.892
6,RRIRNRPPRLPRPRPRPKALPRP,0.0983
7,RRIRNRPPRLPRPRPRPKHIPRP,-0.438
8,RRIRNRPPRLPRPRPRPKKEPRP,0.0493
9,RRIRNRPPRLPRPRPRPKMDPRP,0.0178
10,RRIRNRPPRLPRPRPRPKMQPRP,-0.0708
11,RRIRNRPPRLPRPRPRPKPAPRP,0.601
12,RRIRNRPPRLPRPRPRPKPYPRP,-0.342
13,RRIRNRPPRLPRPRPRPKRFPRP,0.0343
14,RRIRNRPPRLPRPRPRPKTQPRP,-0.0734
15,RRIRNRPPRLPRPRPRPKVVPRP,0.0279
16,RRIRNRPPRLPRPRPRPKVYPRP,-0.406
17,RRIRNRPPRLPRPRPRPKYAPRP,-0.292
18,RRIRNRPPRLPRPRPRPKYCPRP,-0.225
19,RRIRNRPPRLPRPRPRPKYQPRP,-0.0997
20,RRIRNRPPRLPRPRPRPLADPRP,-0.00474
21,RRIRNRPPRLPRPRPRPLAEPRP,0.108
22,RRIRNRPPRLPRPRPRPLAIPRP,0.0449
23,RRIRNRPPRLPRPRPRPLATPRP,0.292
24,RRIRNRPPRLPRPRPRPLCPPRP,-0.141
25,RRIRNRPPRLPRPRPRPLDPPRP,-0.117

row,Sequence,shrunken log2 fold change
1,RRIRNRPPRLPRPRPRPLEAPRP,-0.00641
2,RRIRNRPPRLPRPRPRPLETPRP,-0.0418
3,RRIRNRPPRLPRPRPRPLGIPRP,-0.169
4,RRIRNRPPRLPRPRPRPLPHPRP,-0.387
5,RRIRNRPPRLPRPRPRPLPLPRP,0.187
6,RRIRNRPPRLPRPRPRPLQHPRP,0.198
7,RRIRNRPPRLPRPRPRPLRFPRP,0.426
8,RRIRNRPPRLPRPRPRPLSSPRP,-0.0989
9,RRIRNRPPRLPRPRPRPLTAPRP,-0.221
10,RRIRNRPPRLPRPRPRPLTMPRP,-0.429
11,RRIRNRPPRLPRPRPRPLVDPRP,0.0463
12,RRIRNRPPRLPRPRPRPLYHPRP,-0.941
13,RRIRNRPPRLPRPRPRPLYIPRP,-0.826
14,RRIRNRPPRLPRPRPRPMFIPRP,-0.383
15,RRIRNRPPRLPRPRPRPMGFPRP,-0.0516
16,RRIRNRPPRLPRPRPRPMGSPRP,-0.01
17,RRIRNRPPRLPRPRPRPMGWPRP,-0.00822
18,RRIRNRPPRLPRPRPRPMKCPRP,0.0131
19,RRIRNRPPRLPRPRPRPMKHPRP,-0.705
20,RRIRNRPPRLPRPRPRPMKPPRP,-0.00018
21,RRIRNRPPRLPRPRPRPMLVPRP,-0.0299
22,RRIRNRPPRLPRPRPRPMMDPRP,-0.425
23,RRIRNRPPRLPRPRPRPMMPPRP,-0.0635
24,RRIRNRPPRLPRPRPRPMPKPRP,-0.0238
25,RRIRNRPPRLPRPRPRPMQSPRP,-0.0939

row,Sequence,shrunken log2 fold change
1,RRIRNRPPRLPRPRPRPMTDPRP,-0.088
2,RRIRNRPPRLPRPRPRPMTKPRP,0.116
3,RRIRNRPPRLPRPRPRPMTNPRP,0.454
4,RRIRNRPPRLPRPRPRPMTYPRP,-0.0655
5,RRIRNRPPRLPRPRPRPMVMPRP,-0.383
6,RRIRNRPPRLPRPRPRPMWIPRP,-0.148
7,RRIRNRPPRLPRPRPRPMWWPRP,-0.0071
8,RRIRNRPPRLPRPRPRPMWYPRP,-0.0267
9,RRIRNRPPRLPRPRPRPMYIPRP,-1.03
10,RRIRNRPPRLPRPRPRPNAFPRP,-0.126
11,RRIRNRPPRLPRPRPRPNATPRP,-0.185
12,RRIRNRPPRLPRPRPRPNCMPRP,-0.0251
13,RRIRNRPPRLPRPRPRPNCRPRP,-0.0373
14,RRIRNRPPRLPRPRPRPNEAPRP,-0.00931
15,RRIRNRPPRLPRPRPRPNEDPRP,0.00927
16,RRIRNRPPRLPRPRPRPNGMPRP,-0.00904
17,RRIRNRPPRLPRPRPRPNHMPRP,-0.16
18,RRIRNRPPRLPRPRPRPNHRPRP,-0.216
19,RRIRNRPPRLPRPRPRPNIAPRP,-0.352
20,RRIRNRPPRLPRPRPRPNKEPRP,-0.0761
21,RRIRNRPPRLPRPRPRPNKFPRP,-0.597
22,RRIRNRPPRLPRPRPRPNKKPRP,-0.198
23,RRIRNRPPRLPRPRPRPNPTPRP,-0.124
24,RRIRNRPPRLPRPRPRPNQKPRP,-0.174
25,RRIRNRPPRLPRPRPRPNQNPRP,0.337
